2 variants from IntAct's records for PubMed 27178753 can be followed below.

Sequences and labels used below:
B1: Focal adhesion kinase 1 (Homo sapiens), Q05397 (parent)
chain: MAAAYLDPNLNHTPNSSTKTHLGTGMERSPGAMERVLKVFHYFESNSEPTTWASIIRHGDATDVRGIIQKIVDSHKVKHVACYGFRLSHLRSEEVHWLHVDMGVSSVREKYELAHPPEEWKYELRIRYLPKGFLNQFTEDKPTLNFFYQQVKSDYMLEIADQVDQEIALKLGCLEIRRSYWEMRGNALEKKSNYEVLEKDVGLKRFFPKSLLDSVKAKTLRKLIQQTFRQFANLNREESILKFFEILSPVYRFDKECFKCALGSSWIISVELAIGPEEGISYLTDKGCNPTHLADFTQVQTIQYSNSEDKDRKGMLQLKIAGAPEPLTVTAPSLTIAENMADLIDGYCRLVNGTSQSFIIRPQKEGERALPSIPKLANSEKQGMRTHAVSVSETDDYAEIIDEEDTYTMPSTRDYEIQRERIELGRCIGEGQFGDVHQGIYMSPENPALAVAIKTCKNCTSDSVREKFLQEALTMRQFDHPHIVKLIGVITENPVWIIMELCTLGELRSFLQVRKYSLDLASLILYAYQLSTALAYLESKRFVHRDIAARNVLVSSNDCVKLGDFGLSRYMEDSTYYKASKGKLPIKWMAPESINFRRFTSASDVWMFGVCMWEILMHGVKPFQGVKNNDVIGRIENGERLPMPPNCPPTLYSLMTKCWAYDPSRRPRFTELKAQLSTILEEEKAQQEERMRMESRRQATVSWDSGGSDEAPPKPSRPGYPSPRSSEGFYPSPQHMVQTNHYQVSGYPGSHGITAMAGSIYPGQASLLDQTDSWNHRPQEIAMWQPNVEDSTVLDLRGIGQVLPTHLMEERLIRQQQEMEEDQRWLEKEERFLKPDVRLSRGSIDREDGSLQGPIGNQHIYQPVGKPDPAAPPKKPPRPGAPGHLGSLASLSSPADSYNEGVKLQPQEISPPPTANLDRSNDKVYENVTGLVKAVIEMSSKIQPAPPEEYVPMVKEVGLALRTLLATVDETIPLLPASTHREIEMAQKLLNSDLGELINKMKLAQQYVMTSLQQEYKKQMLTAAHALAVDAKNLLDVIDQARLKMLGQTRPH

Variants of B1 are the subject of one test. To be noted: with itb4_human ITGB4, P16144.
Chain of itb4_human ITGB4, P16144 (P16144 whole entry): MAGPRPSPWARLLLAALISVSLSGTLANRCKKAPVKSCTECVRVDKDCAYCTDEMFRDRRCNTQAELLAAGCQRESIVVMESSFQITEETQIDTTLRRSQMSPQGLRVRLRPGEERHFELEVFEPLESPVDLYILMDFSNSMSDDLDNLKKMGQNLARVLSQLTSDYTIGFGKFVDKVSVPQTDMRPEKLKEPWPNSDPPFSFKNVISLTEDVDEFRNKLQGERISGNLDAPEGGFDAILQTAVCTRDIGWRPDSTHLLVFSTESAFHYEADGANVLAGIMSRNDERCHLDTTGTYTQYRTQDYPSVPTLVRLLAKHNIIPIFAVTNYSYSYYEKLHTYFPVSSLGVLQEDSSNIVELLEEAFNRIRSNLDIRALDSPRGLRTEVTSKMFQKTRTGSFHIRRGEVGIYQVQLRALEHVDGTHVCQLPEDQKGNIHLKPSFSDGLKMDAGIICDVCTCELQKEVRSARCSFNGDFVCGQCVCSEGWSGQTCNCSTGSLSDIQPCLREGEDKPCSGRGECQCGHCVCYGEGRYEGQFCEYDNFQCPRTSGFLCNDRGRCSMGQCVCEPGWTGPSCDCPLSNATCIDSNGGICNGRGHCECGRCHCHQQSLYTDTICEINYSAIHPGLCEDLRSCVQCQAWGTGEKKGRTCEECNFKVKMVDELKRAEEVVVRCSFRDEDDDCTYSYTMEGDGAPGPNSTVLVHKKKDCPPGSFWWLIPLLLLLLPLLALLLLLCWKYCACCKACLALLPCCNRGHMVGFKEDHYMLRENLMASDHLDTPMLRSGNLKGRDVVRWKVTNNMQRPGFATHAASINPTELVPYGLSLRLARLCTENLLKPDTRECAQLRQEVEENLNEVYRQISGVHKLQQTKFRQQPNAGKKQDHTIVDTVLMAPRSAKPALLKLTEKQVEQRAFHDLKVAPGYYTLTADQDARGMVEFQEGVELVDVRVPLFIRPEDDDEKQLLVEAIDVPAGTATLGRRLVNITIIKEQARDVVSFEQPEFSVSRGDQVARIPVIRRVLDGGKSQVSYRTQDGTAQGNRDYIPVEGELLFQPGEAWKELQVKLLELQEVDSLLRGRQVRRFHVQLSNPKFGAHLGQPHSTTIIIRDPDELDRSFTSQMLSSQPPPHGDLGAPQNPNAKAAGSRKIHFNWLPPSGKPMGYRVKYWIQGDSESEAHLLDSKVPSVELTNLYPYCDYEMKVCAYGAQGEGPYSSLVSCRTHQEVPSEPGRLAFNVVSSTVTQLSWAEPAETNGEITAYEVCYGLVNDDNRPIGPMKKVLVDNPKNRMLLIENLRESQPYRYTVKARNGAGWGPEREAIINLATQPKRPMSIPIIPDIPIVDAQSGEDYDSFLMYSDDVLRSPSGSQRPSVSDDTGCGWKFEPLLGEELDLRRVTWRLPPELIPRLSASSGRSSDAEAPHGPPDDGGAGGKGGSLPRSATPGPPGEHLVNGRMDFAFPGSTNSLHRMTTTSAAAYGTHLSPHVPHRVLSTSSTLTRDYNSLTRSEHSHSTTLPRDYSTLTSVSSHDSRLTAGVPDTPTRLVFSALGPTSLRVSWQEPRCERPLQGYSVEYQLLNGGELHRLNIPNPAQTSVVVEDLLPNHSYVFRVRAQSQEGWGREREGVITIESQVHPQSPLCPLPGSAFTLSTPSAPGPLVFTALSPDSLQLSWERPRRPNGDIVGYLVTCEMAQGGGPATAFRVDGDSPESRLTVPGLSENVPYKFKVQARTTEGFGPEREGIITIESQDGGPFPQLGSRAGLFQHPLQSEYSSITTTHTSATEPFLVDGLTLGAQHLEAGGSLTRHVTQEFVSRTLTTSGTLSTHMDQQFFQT
Regarding R385A;T386A, the “effect of a mutation on the interaction” value was “decreasing interaction”.

The variants in a further test derive from B1. To be noted: with itb4_human ITGB4, P16144. The source holds these as a separate data set.
With E380A;K381A;Q382A, the “effect of a mutation on the interaction” value is “disrupting interaction”.
